From patent US20040018971A1 (published 2004)

B1: Her2/neu.649.F1I10 (peptide)
peptide: FPLTSIISAI
notes: 10-mer analog of the HER2/neu peptide starting at position 649
B2: Her2/neu.649.F1, 9-mer (peptide)
peptide: FPLTSIISA
notes: 9-mer analog of the HER2/neu peptide starting at position 649; same label as the 10-mer in r43
B3: Her2/neu.698.F1 (peptide)
peptide: FPLTPSGAM
notes: 9-mer analog of the HER2/neu peptide starting at position 698
B4: Her2/neu.701.F1 (peptide)
peptide: FPSGAMPNQI
notes: the label names only F1 though the C-terminus is I
B5: Her2/neu.706.I11 (peptide)
peptide: MPNQAQMRILI
notes: 11-mer analog of the HER2/neu peptide starting at position 706
B6: Her2/neu.706.F1, 10-mer (peptide)
peptide: FPNQAQMRIL
notes: 10-mer analog of the HER2/neu peptide starting at position 706; same label as the 9-mer in r49
B7: Her2/neu.779.F1, 8-mer (peptide)
peptide: FPYVSRLL
notes: 8-mer analog of the HER2/neu peptide starting at position 779; same label as the 10-mer in r56
B8: Her2/neu.779.F1, 10-mer (peptide)
peptide: FPYVSRLLGI
notes: 10-mer analog of the HER2/neu peptide starting at position 779; same label as the 8-mer in r55
B9: Her2/neu.801.I11 (peptide)
peptide: MPYGCLLDHVI
notes: 11-mer analog of the HER2/neu peptide starting at position 801
B10: Her2/neu.884.F1I8 (peptide)
peptide: FPIKWMAI
notes: 8-mer analog of the HER2/neu peptide starting at position 884
B11: Her2/neu.884.F1 (peptide)
peptide: FPIKWMAL
notes: 8-mer analog of the HER2/neu peptide starting at position 884; also called FPIKWMAL
B12: Her2/neu.921.F1 (peptide)
peptide: FPYDGIPA
notes: 8-mer analog of the HER2/neu peptide starting at position 921
B13: Her2/neu.921.F1I8 (peptide)
peptide: FPYDGIPI
notes: as for B12
B14: HER2/neu peptide, position 42, 9 amino acids (peptide)
peptide: HLDMLRHLY
notes: also called Her2/neu.42
B15: HER2/neu peptide, position 632, 9 amino acids (peptide)
peptide: HSCVDLDDK
B16: HER2/neu peptide, position 478, 10 amino acids (peptide)
peptide: HTVPWDQLFR
notes: also called Her2/neu.478
B17: HER2/neu peptide, position 673, 9 amino acids (peptide)
peptide: ILIKRRQQK
B18: HER2/neu peptide, position 714, 9 amino acids (peptide)
peptide: ILKETELRK
B19: HER2/neu peptide, position 167, 9 amino acids (peptide)
peptide: ILWKDIFHK
notes: also called Her2/neu.167
B20: HER2/neu peptide, position 747, 10 amino acids (peptide)
peptide: KIPVAIKVLR
B21: HER2/neu peptide, position 681, 8 amino acids (peptide)
peptide: KIRKYTMR
B22: HER2/neu peptide, position 753, 10 amino acids (peptide)
peptide: KVLRENTSPK
B23: HER2/neu peptide, position 509, 9 amino acids (peptide)
peptide: LACHQLCAR
B24: HER2/neu peptide, position 179, 10 amino acids (peptide)
peptide: LALTLIDTNR
B25: HER2/neu peptide, position 161, 10 amino acids (peptide)
peptide: LCYQDTILWK
B26: HER2/neu peptide, position 1213, 9 amino acids (peptide)
peptide: FSPAFDNLY
B27: HER2/neu peptide, position 976, 10 amino acids (peptide)
peptide: FSRMARDPQR
B28: HER2/neu peptide, position 1038, 9 amino acids (peptide)
peptide: GAGGMVHHR
B29: HER2/neu peptide, position 704, 10 amino acids (peptide)
peptide: GAMPNQAQMR
B30: HER2/neu peptide, position 292, 10 amino acids (peptide)
peptide: GASCVTACPY
B31: HER2/neu peptide, position 1188, 9 amino acids (peptide)
peptide: GGAVENPEY
B32: HER2/neu peptide, position 672, 10 amino acids (peptide)
peptide: GILIKRRQQK
B33: HER2/neu peptide, position 508, 10 amino acids (peptide)
peptide: GLACHQLCAR
B34: HER2/neu peptide, position 447, 10 amino acids (peptide)
peptide: GLGISWLGLR
B35: HER2/neu peptide, position 549, 10 amino acids (peptide)
peptide: GLPREYVNAR
B36: HER2/neu peptide, position 346, 9 amino acids (peptide)
peptide: GMEHLREVR
B37: HER2/neu peptide, position 832, 9 amino acids (peptide)
peptide: GMSYLEDVR
B38: HER2/neu peptide, position 727, 9 amino acids (peptide)
peptide: GSGAFGTVY
B39: HER2/neu peptide, position 727, 10 amino acids (peptide)
peptide: GSGAFGTVYK
B40: HER2/neu peptide, position 327, 10 amino acids (peptide)
peptide: GTQRCEKCSK
B41: HER2/neu peptide, position 776, 9 amino acids (peptide)
peptide: GVGSPYVSR
B42: HER2/neu peptide, position 668, 9 amino acids (peptide)
peptide: GVVFGILIK
B43: HER2/neu peptide, position 878, 10 amino acids (peptide)
peptide: HADGGKVPIK

What follows are binders tested against HLA-B*0702 (human) (assay: competition vs 125I-labeled standard peptide, purified HLA).

| Binder | IC50 |
| --- | --- |
| B1 | 229 nM |
| B2 | 290 nM |
| B3 | 2 nM |
| B4 | 229 nM |
| B5 | 344 nM |
| B6 | 81 nM |
| B7 | 61 nM |
| B8 | 112 nM |
| B9 | 66 nM |
| B10 | 22 nM |
| B11 | 0.6 nM |
| B12 | 423 nM |
| B13 | 177 nM |

What follows are binders tested against HLA-B*3501 (human) in the same assay as above.

| Binder | IC50 |
| --- | --- |
| B1 | 327 nM |
| B2 | 21 nM |
| B3 | 16 nM |
| B4 | 6550 nM |
| B5 | 1800 nM |
| B6 | 200 nM |
| B7 | 600 nM |
| B8 | 3600 nM |
| B9 | 4.2 nM |
| B10 | 1140 nM |
| B11 | 248 nM |
| B12 | 206 nM |
| B13 | 379 nM |

Each binder was assayed against HLA-B*5101 (human) in the same assay as above.

| Binder | IC50 |
| --- | --- |
| B1 | 26 nM |
| B2 | 663 nM |
| B3 | 71 nM |
| B4 | 131 nM |
| B5 | 37 nM |
| B6 | 458 nM |
| B7 | 6.9 nM |
| B8 | 7.9 nM |
| B9 | 2.4 nM |
| B10 | 122 nM |
| B11 | 306 nM |
| B12 | 157 nM |
| B13 | 10 nM |

These binders were tested against HLA-B*5301 (human) in the same assay as above.

| Binder | IC50 |
| --- | --- |
| B1 | 194 nM |
| B2 | 3000 nM |
| B3 | 1520 nM |
| B4 | 775 nM |
| B5 | 12 nM |
| B6 | 443 nM |
| B7 | 581 nM |
| B8 | 358 nM |
| B9 | 1.9 nM |
| B10 | 930 nM |
| B11 | 547 nM |
| B12 | 6200 nM |
| B13 | 344 nM |

These binders were tested against HLA-B*5401 (human) in the same assay as above.

| Binder | IC50 |
| --- | --- |
| B1 | 3.3 nM |
| B2 | 1.4 nM |
| B3 | 91 nM |
| B4 | 100 nM |
| B5 | 303 nM |
| B6 | 31 nM |
| B7 | 172 nM |
| B8 | 9.1 nM |
| B9 | 7.7 nM |
| B10 | 33 nM |
| B11 | 40 nM |
| B12 | 1 nM |
| B13 | 56 nM |

What follows are binders tested against HLA-A*1101 (human) (assay: competition with 125I-labelled probe peptide for purified HLA-A*1101, gel filtration; standard peptide 940.06 [..] (6.0 nM)).

| Binder | relative binding ratio |
| --- | --- |
| B14 | 0.0002 ratio (IC50 of standard peptide / IC50 of test peptide) |
| B15 | 0.0007 ratio (IC50 of standard peptide / IC50 of test peptide) |
| B16 | 0.072 ratio (IC50 of standard peptide / IC50 of test peptide) |
| B17 | 0.0097 ratio (IC50 of standard peptide / IC50 of test peptide) |
| B18 | 0.0023 ratio (IC50 of standard peptide / IC50 of test peptide) |
| B19 | 0.31 ratio (IC50 of standard peptide / IC50 of test peptide) |
| B20 | 0.0099 ratio (IC50 of standard peptide / IC50 of test peptide) |
| B21 | 0.0004 ratio (IC50 of standard peptide / IC50 of test peptide) |
| B22 | 0.22 ratio (IC50 of standard peptide / IC50 of test peptide) |
| B23 | 0.0003 ratio (IC50 of standard peptide / IC50 of test peptide) |
| B24 | 0.0003 ratio (IC50 of standard peptide / IC50 of test peptide) |
| B25 | 0.0063 ratio (IC50 of standard peptide / IC50 of test peptide) |

The binders below were run against T1, HLA-A*0301 (human) (assay: inhibition of 125I-labelled probe peptide binding to purified HLA-A*0301, gel filtration; ratio to standard peptide 941.12 ([..], 11 nM)).
T1 construct: also called HLA-A3

| Binder | relative binding ratio (IC50 of standard peptide / IC50 of test peptide) |
| --- | --- |
| B26 | 0.0002 |
| B27 | -0.0002 |
| B28 | 0.0002 |
| B29 | -0.0002 |
| B30 | 0.0003 |
| B31 | 0.0003 |
| B32 | 0.015 |
| B33 | 0.011 |
| B34 | 0.0037 |
| B35 | 0.0002 |
| B36 | -0.0002 |
| B37 | -0.0002 |
| B38 | 0.0028 |
| B39 | 0.066 |
| B40 | 0.021 |
| B41 | 0.001 |
| B42 | 0.0047 |
| B43 | 0.0003 |
